We go through six molecules from article PMC10209032, “Molecular determinants for Rous sarcoma virus intasome assemblies involved in retroviral integration”.

Series [1] addresses Rous sarcoma virus (RSV) integrase, WT full-length IN (1–286 aa), Prague A (Rous sarcoma virus (Prague A)). As to the kind of experiment: not stated; oligomeric state of free purified IN proteins, without DNA; shown in Fig. S5, method and conditions not given.
In series [2] the target is Rous sarcoma virus integrase IN (1–278), C-terminal tail truncation (Rous sarcoma virus (Prague A)). In words: cryo-EM structure; STC intasome assembled from IN (1–278) 35 μM and the viral/target DNA substrate 10 μM by dialysis, purified by SEC in 20 mM HEPES pH 7.5, 650 mM NaCl, 1 mM TCEP; single particle, C2 symmetry, 3.36 Å; the IN oligomer stands on two DNA substrates. A general note: In gel filtration, larger molecules generally elute earlier.

For series [3], the target named is Rous sarcoma virus integrase IN (1–286) R244A (Rous sarcoma virus (Prague A)). As to the kind of experiment: not stated; oligomeric state of free purified IN proteins, without DNA; shown in Fig. S5, method and conditions not given.
In series [4] the target is Rous sarcoma virus integrase IN (1–286) R244E (Rous sarcoma virus (Prague A)). The series is described as above.
The target in series [5] is Rous sarcoma virus integrase IN (1–286) Y246A (Rous sarcoma virus (Prague A)). The description is as above.
The target in series [6] is T1, RSV IN (1-278) (Rous sarcoma virus, Prague A, UniProt P03354 1281-1558).
T1 sequence: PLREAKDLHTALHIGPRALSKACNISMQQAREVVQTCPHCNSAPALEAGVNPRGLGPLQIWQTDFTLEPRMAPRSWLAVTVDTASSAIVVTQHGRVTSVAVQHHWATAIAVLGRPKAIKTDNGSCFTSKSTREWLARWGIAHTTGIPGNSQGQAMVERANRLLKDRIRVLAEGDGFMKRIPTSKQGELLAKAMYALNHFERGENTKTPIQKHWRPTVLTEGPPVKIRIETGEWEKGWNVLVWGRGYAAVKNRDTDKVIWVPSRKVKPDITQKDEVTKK
As to the kind of experiment: cryo-EM (3.36 A); SEC; Zn2+ and Mg2+ listed in structure table; octameric STC; STC (IN 1-278, cryo-EM prep): 35 uM IN + 10 uM DNA in 20 mM HEPES pH 7.5, 1 M NaCl, 20% glycerol, 1 mM TCEP, dialyzed to 0.125 M NaCl, solubilized at 0.75 M NaCl; SEC in 20 mM HEPES pH 7.5, 650 mM NaCl, 1 mM TCEP. Mutant STC 18 h at 4 C; CSC with MK-2048 18 h at 18 C (buffer not in material). The settings on record: protein: recombinant; chain copies: 8; branched; S2 pairs with S1[1-20] leaving 5' AA unpaired; S3 pairs with S1[27-42]; self-complementary S1[21-26]; GTGCAC pairs two copies; 2 copies of each strand in STC.

“Rous sarcoma virus (RSV) integrase, WT full-length IN (1–286 aa), Prague A (enzyme)”: in series [1], the stoichiometry N (usually a count of units in the complex or per binding partner) worked out at 2. “Rous sarcoma virus integrase IN (1–278), C-terminal tail truncation (enzyme)” had a stoichiometry N in series [2] of 8. For “Rous sarcoma virus integrase IN (1–286) R244A (enzyme)”, the stoichiometry N in series [3] stood at 2. In series [4], “Rous sarcoma virus integrase IN (1–286) R244E (enzyme)” displayed a stoichiometry N of 2. As for “Rous sarcoma virus integrase IN (1–286) Y246A (enzyme)”, in series [5], the stoichiometry N is 2.

B1: RSV STC substrate (viral/target DNA) (mixed)
DNA 1: GAGTATTGCATAAGACAACAGTGCACGAAAGAAGAAGACACT
DNA 2: AATGTTGTCTTATGCAATACTC
DNA 3: AGTGTCTTCTTCTTTC
In the case of B1, the binding result in series [6] was “binds”.
